Target: human proliferating cell nuclear antigen (PCNA), no tag (human, UniProt P12004 1-261)
Experiment: fluorescence polarisation

Chain of human proliferating cell nuclear antigen (PCNA), no tag (P12004 whole entry): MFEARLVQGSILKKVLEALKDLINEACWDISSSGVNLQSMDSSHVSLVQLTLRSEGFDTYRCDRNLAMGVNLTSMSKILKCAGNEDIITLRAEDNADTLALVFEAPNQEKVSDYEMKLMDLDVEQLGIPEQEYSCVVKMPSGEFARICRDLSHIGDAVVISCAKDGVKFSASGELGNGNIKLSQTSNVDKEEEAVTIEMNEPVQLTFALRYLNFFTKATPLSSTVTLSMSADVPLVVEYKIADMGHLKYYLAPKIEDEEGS

Binder | IC50 [nM] | Kd [nM]
divalent p21 peptide (peptide) KRRQTSMTDFYHSKRRLIFSGGSGGSGGSGGSGGSGGSKRRQTSMTDFYHSKRRLIFS | 1000 | 30 ± 2
trivalent p21 peptide (peptide) KRRQTSMTDFYHSKRRLIFSGGSGGSGGSGGSGGSGGSKRRQTSMTDFYHSKRRLIFSGGSGGSGGSGGSGGSGGSKRRQTSMTDFYHSKRRLIFS | 600 | 2.2 ± 0.2

— PMC3417354 (Analytical biochemistry, 2012)
